# In patent US20190225650A1, “PEPTIDOMIMETIC MACROCYCLES AND USE THEREOF IN REGULATING HIF1ALPHA” (AILERON THERAPEUTICS, INC., priority 2013, published 2019):
# Bridge positions count the residues as written; N and C are the ends. Square brackets hold non-standard residues; d marks the D form. Peptide text beside a SMILES is read from it. R8 = C=CCCCCCC[C@@](C)(N)C(=O)O; S5 = C=CCCC[C@](C)(N)C(=O)O; Nle = CCCC[C@H](N)C(=O)O
# B1: SP-6 (peptide)
# peptide: Ac-FIDEEVL[Nle][S5]LVI[S5][Nle]ALDRI-NH2
# modifications: staple 9-13
# SMILES: CCCC[C@H](NC(=O)[C@H](CC(C)C)NC(=O)[C@@H](NC(=O)[C@H](CCC(=O)O)NC(=O)[C@H](CCC(=O)O)NC(=O)[C@H](CC(=O)O)NC(=O)[C@@H](NC(=O)[C@H](Cc1ccccc1)NC(C)=O)[C@@H](C)CC)C(C)C)C(=O)N[C@@]1(C)CCCC=CCCC[C@@](C)(C(=O)N[C@@H](CCCC)C(=O)N[C@@H](C)C(=O)N[C@@H](CC(C)C)C(=O)N[C@@H](CC(=O)O)C(=O)N[C@@H](CCCNC(=N)N)C(=O)N[C@H](C(N)=O)[C@@H](C)CC)NC(=O)[C@H]([C@@H](C)CC)NC(=O)[C@H](C(C)C)NC(=O)[C@H](CC(C)C)NC1=O
# B2: SP-119 (peptide)
# peptide: Ac-FIDE[S5]VLM[S5]LVIE[Nle]ALDRI-NH2
# modifications: staple 5-9
# SMILES: CCCC[C@H](NC(=O)[C@H](CCC(=O)O)NC(=O)[C@@H](NC(=O)[C@@H](NC(=O)[C@H](CC(C)C)NC(=O)[C@]1(C)CCCC=CCCC[C@](C)(NC(=O)[C@H](CCC(=O)O)NC(=O)[C@H](CC(=O)O)NC(=O)[C@@H](NC(=O)[C@H](Cc2ccccc2)NC(C)=O)[C@@H](C)CC)C(=O)N[C@@H](C(C)C)C(=O)N[C@@H](CC(C)C)C(=O)N[C@@H](CCSC)C(=O)N1)C(C)C)[C@@H](C)CC)C(=O)N[C@@H](C)C(=O)N[C@@H](CC(C)C)C(=O)N[C@@H](CC(=O)O)C(=O)N[C@@H](CCCNC(=N)N)C(=O)N[C@H](C(N)=O)[C@@H](C)CC
# B3: SP-282 (peptide)
# peptide: Ac-FIDEQVLM[S5]LVI[S5]MALDRI-NH2
# modifications: staple 9-13
# SMILES: CC[C@H](C)[C@H](NC(=O)[C@H](CCCNC(=N)N)NC(=O)[C@H](CC(=O)O)NC(=O)[C@H](CC(C)C)NC(=O)[C@H](C)NC(=O)[C@H](CCSC)NC(=O)[C@]1(C)CCCC=CCCC[C@](C)(NC(=O)[C@H](CCSC)NC(=O)[C@H](CC(C)C)NC(=O)[C@@H](NC(=O)[C@H](CCC(N)=O)NC(=O)[C@H](CCC(=O)O)NC(=O)[C@H](CC(=O)O)NC(=O)[C@@H](NC(=O)[C@H](Cc2ccccc2)NC(C)=O)[C@@H](C)CC)C(C)C)C(=O)N[C@@H](CC(C)C)C(=O)N[C@@H](C(C)C)C(=O)N[C@@H]([C@@H](C)CC)C(=O)N1)C(N)=O
# B4: SP-89 (peptide)
# peptide: Ac-EVLM[S5]LVI[S5]MGLDRIKELPELWL-NH2
# modifications: staple 5-9
# SMILES: CC[C@H](C)[C@H](NC(=O)[C@H](CCCNC(=N)N)NC(=O)[C@H](CC(=O)O)NC(=O)[C@H](CC(C)C)NC(=O)CNC(=O)[C@H](CCSC)NC(=O)[C@]1(C)CCCC=CCCC[C@](C)(NC(=O)[C@H](CCSC)NC(=O)[C@H](CC(C)C)NC(=O)[C@@H](NC(=O)[C@H](CCC(=O)O)NC(C)=O)C(C)C)C(=O)N[C@@H](CC(C)C)C(=O)N[C@@H](C(C)C)C(=O)N[C@@H]([C@@H](C)CC)C(=O)N1)C(=O)N[C@@H](CCCCN)C(=O)N[C@@H](CCC(=O)O)C(=O)N[C@@H](CC(C)C)C(=O)N1CCC[C@H]1C(=O)N[C@@H](CCC(=O)O)C(=O)N[C@@H](CC(C)C)C(=O)N[C@@H](Cc1c[nH]c2ccccc12)C(=O)N[C@@H](CC(C)C)C(N)=O
# B5: SP-350 (peptide)
# peptide: Ac-LLQAE[R8]LLRALD[S5]VNIDEEVL[Nle][S5]LVI[S5][Nle]-NH2
# modifications: staple 6-13, 23-27
# SMILES: CCCC[C@H](NC(=O)[C@]1(C)CCCC=CCCC[C@](C)(NC(=O)[C@H](CCCC)NC(=O)[C@H](CC(C)C)NC(=O)[C@@H](NC(=O)[C@H](CCC(=O)O)NC(=O)[C@H](CCC(=O)O)NC(=O)[C@H](CC(=O)O)NC(=O)[C@@H](NC(=O)[C@H](CC(N)=O)NC(=O)[C@@H](NC(=O)[C@]2(C)CCCC=CCCCCCC[C@@](C)(NC(=O)[C@H](CCC(=O)O)NC(=O)[C@H](C)NC(=O)[C@H](CCC(N)=O)NC(=O)[C@H](CC(C)C)NC(=O)[C@H](CC(C)C)NC(C)=O)C(=O)N[C@@H](CC(C)C)C(=O)N[C@@H](CC(C)C)C(=O)N[C@@H](CCCNC(=N)N)C(=O)N[C@@H](C)C(=O)N[C@@H](CC(C)C)C(=O)N[C@@H](CC(=O)O)C(=O)N2)C(C)C)[C@@H](C)CC)C(C)C)C(=O)N[C@@H](CC(C)C)C(=O)N[C@@H](C(C)C)C(=O)N[C@@H]([C@@H](C)CC)C(=O)N1)C(N)=O
# Tests used:
# [1] = biological target: T1, GST-tagged p300 CH1 domain (AAs 302-423) / HIF1α (AAs 788-826) (Homo sapiens, UniProt Q09472); test: Biolayer interferometry competition for binding to p300 CH1 domain; details: 300 nM p300 CH1
# T1 construct: GST-tagged p300 CH1 domain (AAs 302-423)
# T1 sequence (Q09472 302-423): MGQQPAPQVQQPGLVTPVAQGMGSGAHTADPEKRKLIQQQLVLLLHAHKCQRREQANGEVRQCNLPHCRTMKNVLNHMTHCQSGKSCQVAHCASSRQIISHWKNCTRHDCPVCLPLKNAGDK
# Experimental: (§1) Biolayer inferometry (ForteBio, Menlo Park Calif.) was used to measure competition of SP-6 for HIF1α (AAs 788-826). Biotinylated HIF1α peptide was captured on […] biosensor tip. The association of 300 nM GST-tagged p300 CH1 domain (AAs 302-423) in the presence or absence of varying concentrations of SP-6 was measured for 240 s. Dissociation was monitored for a minimum of 200 s in the absence of free p300 or stapled peptide. Binding of p300 to biosensor immobilized HIF1α target was analyzed with instrument software and total response (R) was proportional to binding.
# Inhibition of p300 binding was calculated as % inhibition=[…]. A concentration of 10 μM SP-6 blocked 99% of the total binding. The inhibition was dose-dependent, with 2 μM inhibiting 50% of p300/HIF1α binding.
# [2] = biological target: T2, His6-tagged p300 (AA 323-423) (UniProt Q09472 323-423); test: TR-FRET HIF1a/p300 displacement; grade = IC50 <=200 nM
# T2 construct: range 323-423; also called p300-CH; not shown: His6 tag
# T2 sequence (Q09472 323-423 limits assumed): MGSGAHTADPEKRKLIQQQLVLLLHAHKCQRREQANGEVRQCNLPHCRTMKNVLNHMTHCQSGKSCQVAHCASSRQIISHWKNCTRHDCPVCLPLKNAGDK
# Experimental: The ability of peptides to displace HIF1α c-terminal trans-activation domain from p300-CH was measured by a TR FRET assay. […] The complex was diluted to 300 nM final in complete assay media and competitor peptides were added. The complete assay media contained 150 mM NaCl (Sigma +S5150 or equivalent), 20 mM HEPES pH 7.4 (Boston Bioproducts, Ashland, Mass.; #BB-2076), 7.5 mM CHAPS (Thermo #28300 or equivalent), and 1 mM DTT. Protein and peptide were incubated at room temperature for 1 hour before the addition of anti-Flag-K and anti-6×HIS-D2 (CisBio, Bedford Mass.) HTRF reconstitution buffer (50 mM Phosphate pH 7, 0.8 Potassium Flouride, BSA 0.2%)¹ to a final concentration of 0.5 μM and 4 nM respectively. The reaction continued for an additional two hours at room temperature. The reaction was read on a TECAN F500 plate reader with settings recommended by CisBio. The ratio of donor to acceptor fluorescence was calculated. The resulting data was analyzed with Graphpad Prism 5.0. IC50 values were calculated for both proteins using the One Site Fit-LogIC50 equation and presented in the column “IC₅₀ (nM) (HIF1α_p300 Displacement+CHAPS)” of Table 6. ¹ Cisbio USA, Bedford, Mass.; 61HISDLB (lot 007A), 61FG2KLB (024A), HTRF Buffer (62RB3RDF)
# [3] = biological target: T3, GST-tagged p300 CH1 domain (AAs 302-423) (UniProt Q09472 302-423); test: BLI competition, 300 nM GST-p300 CH1 on immobilised HIF1α 788-826
# T3 construct: range 302-423; not shown: GST tag
# T3 sequence (Q09472 302-423 limits assumed): as the sequence (Q09472 302-423) above
# Experimental: as §1, with “Biotinylated” for “Biolayer inferometry (ForteBio, Menlo Park Calif.) was used to measure competition of SP-6 for HIF1α (AAs 788-826). Biotinylated”
# A concentration of 10 μM SP-6 blocked 99% of the total binding. The inhibition was dose-dependent, with 2 μM inhibiting 50% of p300/HIF1α binding.
Molecule,IC50 [2] [nM],other results
CCCC[C@H](NC(=O)[C@H](CC(C)C)NC(=O)[C@@H](NC(=O)[C@H](CCC(=O)O)NC(=O)[C@H](CCC(=O)O)NC(=O)[C@H](CC(=O)O)NC(=O)[C@@H](NC(=O)[C@H](Cc1ccccc1)NC(C)=O)[C@@H](C)CC)C(C)C)C(=O)N[C@@]1(C)CCCC=CCCC[C@@](C)(C(=O)N[C@@H](CCCC)C(=O)N[C@@H](C)C(=O)N[C@@H](CC(C)C)C(=O)N[C@@H](CC(=O)O)C(=O)N[C@@H](CCCNC(=N)N)C(=O)N[C@H](C(N)=O)[C@@H](C)CC)NC(=O)[C@H]([C@@H](C)CC)NC(=O)[C@H](C(C)C)NC(=O)[C@H](CC(C)C)NC1=O [SP-6] (Ac-FIDEEVL[Nle][S5]LVI[S5][Nle]ALDRI-NH2; staple 9-13),,inhibition at 2 µM ([1]; 2 μM): 50%; inhibition at 10 µM ([1]; 10 μM): 99%
B1,≤ 200,IC50 [3]: 2000 nM
B2,≤ 200,
B3,≤ 200,
B4,≤ 200,
B5,≤ 200,
